To fix the notation:
B1: S388 (peptide)
peptide: LDESFYDWFERQLG
B2: S395 (peptide)
peptide: GSLDESFYDWFERQL
B3: S372 (peptide)
peptide: SGSLDESFYDWFERQLGKK
B4: S379 (peptide)
peptide 1: GSLDESFYDWFERQLGKKKX
peptide 2: GSLDESFYDWFERQLGKKKX
modifications: C-terminal Lys carrying Ald coupled to linker 19
notes: dimer, C-C
B5: S371 (peptide)
peptide: GSLDESFYDWFERQLGKK
notes: also called RP9
B6: S374 (peptide)
peptide 1: XGSLDESFYDWFERQLGKK
peptide 2: XGSLDESFYDWFERQLGKK
modifications: not fully specified; N-terminal Ald (aldehyde from periodate oxidation of serine) coupled to linker 17
notes: dimer, N-N
B7: S378 (peptide)
peptide 1: GSLDESFYDWFERQLGKKKX
peptide 2: GSLDESFYDWFERQLGKKKX
modifications: C-terminal Lys carrying Ald coupled to linker 17
notes: dimer, C-C
B8: S387 (peptide)
peptide: SLDESFYDWFERQLG
B9: S392 (peptide)
peptide: FYDWFERQLG
B10: S381 (peptide)
peptide 1: EEDWLQRNANFYDWFVAELX
peptide 2: EEDWLQRNANFYDWFVAELX
modifications: C-terminal Lig′ coupled to linker 23
notes: dimer, C-C
B11: S373 (peptide)
peptide: GSLDESFYDWFERQLGKKKS
modifications: not fully specified; printed as GSLDESFYDWFERQLGKKK(S)
B12: S376 (peptide)
peptide 1: XGSLDESFYDWFERQLGKK
peptide 2: XGSLDESFYDWFERQLGKK
modifications: N-terminal Ald coupled to linker 19
notes: dimer, N-N
B13: S386 (peptide)
peptide: GSLDESFYDWFERQLG
notes: also called RP9 minus terminal lysines
B14: S394 (peptide)
peptide: GSLDESFYDWFERQ
B15: S366 (peptide)
peptide: PLRESRNFYDWFVQQLE
B16: A6L-0-H3-IR (peptide)
peptide: YRGMLVLGRISGGAGKAASERPARIGQKVSAVNFYDWFV
B17: B6Hα-1-B5-IR (peptide)
peptide: CCTTEMVVMDARDDPFYHKLSELVTGG
B18: H2CA-4-E9-IGFR (peptide)
peptide: RGAVAGFHDQFYDWFDRQVSRVHKFG
B19: S441 (peptide)
peptide 1: ESFYDWFERQLGGGGK
peptide 2: WAWVQCEVYGRGCPS
modifications: not fully specified (bridges); cysteine pairing not given here; also: K16 of chain 1 chemically linked to C-terminus of chain 2 (C-C on a lysine)
B20: S400 (peptide)
peptide: ESFYDWFERQ
B21: S471 (peptide)
peptide: LDQEWAWVQCEVYGRGCPSESFYDWFERQLG
B22: S494 (peptide)
peptide: B21 peptide with L1A
B23: S483 (peptide)
peptide: LDEWAWVQCVEYGRGCPSESFYDWFERQLG
B24: S512 (peptide)
peptide: WLDQEWAWVQCEVYGRGCPSGGSGGSSQAGSAFYAWFDQVLRTV
B25: S442 (peptide)
peptide 1: ESFYDWFERQLGGGGK
peptide 2: AWVQCEVYGRGCPS
modifications: not fully specified (bridges); cysteine pairing not given here; also: bond at chain A 16 to a chain's C-terminus
B26: S533 (peptide)
peptide: LDQEWAQVQCEVYGRGCPSESFYDWFERQL
B27: S536 (peptide)
peptide: B26 peptide with D2E, Q3E, Q9E
B28: S499 (peptide)
peptide: B26 peptide with Q7A
B29: S497 (peptide)
peptide: B26 peptide with E4A, Q7W
B30: S495 (peptide)
peptide: B26 peptide with D2A, Q7W
B31: S502 (peptide)
peptide: B26 peptide with Q7W, E11A
B32: S498 (peptide)
peptide: B26 peptide with W5A, Q7W
B33: S504 (peptide)
peptide: B26 peptide with Q7W, Y13A
B34: S503 (peptide)
peptide: B26 peptide with Q7W, V12A
B35: S457 (peptide)
peptide: WLDQEWAWVQCEVYGRGCPSGGSGGSGSLDESFYDWFERQLG
B36: S458 (peptide)
peptide: B35 peptide
B37: S437 (peptide)
peptide 1: ESFYDWFERQLGGGGK
peptide 2: LDQEWAWVQCEVYGRGCPS
modifications: not fully specified (bridges); cysteine pairing not given here; also: K16 of chain 1 chemically linked to C-terminus of chain 2 (C-C on a lysine)
B38: S511 (peptide)
peptide: WLDQEWAWVQCEVYGRGCPSGGSGGSGRVDWLQRNANFYDWFVAELG
B39: S399 (peptide)
peptide: ESFYDWFERQL
B40: S459 (peptide)
peptide: GSLDESFYDWFERQLGGGSGGSWLDQEWAWVQCEVYGRGCPS
B41: S543 (peptide)
peptide: B40 peptide with Q26E, W30Q
B42: S486 (peptide)
peptide: LDQEWAWVQCVYGRGCPSESFYDWFERQLG
B43: S439 (peptide)
peptide 1: ESFYDWFERQLGGGGK
peptide 2: QEWAWVQCEVYGRGCPS
modifications: not fully specified (bridges); cysteine pairing not given here; also: K16 of chain 1 chemically linked to C-terminus of chain 2 (C-C on a lysine)
B44: S438 (peptide)
peptide 1: ESFYDWFERQLGGGGK
peptide 2: DQEWAWVQCEVYGRGCPS
modifications: not fully specified (bridges); cysteine pairing not given here; also: K16 of chain 1 chemically linked to C-terminus of chain 2 (C-C on a lysine)
B45: S510 (peptide)
peptide: SLEEEWAQVECEVYGRGCPSGGSGGSGLLDESFYHWFDRQLR
B46: S440 (peptide)
peptide 1: ESFYDWFERQLGGGGK
peptide 2: EWAWVQCEVYGRGCPS
modifications: not fully specified (bridges); cysteine pairing not given here; also: K16 of chain 1 chemically linked to C-terminus of chain 2 (C-C on a lysine)
B47: S456 (peptide)
peptide 1: XGSLDESFYDWFERQLGKK
peptide 2: XKEWLDQEWAWVQCEVYGRGCPSEE
modifications: not fully specified; N-terminal Ald

Residue numbers refer to the chain shown, from its start. In names and notes the source's numbering stands. No end group written: not given here.

The first experiment has as its target T1, human insulin receptor (HIR) (human, UniProt P06213 28-1382, limits assumed).
T1 construct: Detergent-solubilised receptor; The natural receptor is an alpha2-beta2 heterotetramer cleaved from one precursor
As to the kind of experiment: 125I-insulin displacement, solubilised HIR.
For the molecule B1, the dissociation constant Kd turned out to be 340 nM. The same measure, in the same setting: the same measure for B2: 8100 nM. B3 registered a Kd of 200 nM. On the same count and under the same terms, the same measure for B4: 56 nM; for B5: 630 nM; for B6: 180 nM. Same read-out and setting: in the case of B7 it was 65 nM. The same measure, in the same setting: in the case of B8 it was 630 nM; in that of B9, 3800 nM. Consider B10, for which the affinity, expressed as Kd, was 120 nM. This Kd lies about 32-fold lower than the previous one. The same measure, in the same setting: in the case of B11 it was 120 nM; in that of B12, 160 nM. Regarding B13, the Kd turned out to be 320 nM. Same read-out and setting: the same measure for B14: 91 nM; for B15: 370 nM.

Another experiment has as its target T2, Soluble IGF-1R (R&D Systems, Cat. # 391-GR/CF); recombinant human IGF-1R (human, UniProt P08069 31-935).
T2 construct: extracellular domain; Eu3+-labelled in the TR-FRET assays; also called sIGF-1R; rhIGF-1R
Nature of the experiment: phage ELISA, vs IR.
On to B16, for which the “IGF-1R/IR Comparison” value is 13 ratio.

As for B17, the “IGF-1R/IR Comparison” value came to 20.5 ratio. For the molecule B18, the “IGF-1R/IR Comparison” value stood at 3 ratio.

The next experiment has as its target T2, Soluble IGF-1R (R&D Systems, Cat. # …). As to the kind of experiment: phage ELISA vs milk.
For the molecule B16, the “Ratio over Background” value was found to be 26 fold.

Consider B17, for which the “Ratio over Background” value came out at 20.5 fold. On the same count and under the same terms, in the case of B18 it was 5.6 fold.

A further experiment deals with human insulin receptor (HIR) (human, UniProt P06213 28-1382, limits assumed). Nature of the experiment: 125I-insulin competition, solubilised HIR.
B19: the Kd was 120 nM. The same measure, in the same setting: in the case of B20 it was 630 nM; in that of B21, 0.67 nM. The same measure, in the same setting: in the case of B22 it was 17 nM; in that of B23, 52 nM.

B24 came in with a Kd of 28 nM. On the same count and under the same terms, the same measure for B25: 160 nM. Same read-out and setting: the same measure for B26: 0.067 nM. On the same count and under the same terms, in the case of B27 it was 0.083 nM; in that of B28, 0.62 nM. The molecule B29 gave a Kd of 2.5 nM. Still for that read-out and setting: in the case of B30 it was 2.6 nM. Same read-out and setting: in the case of B31 it was 3 nM; in that of B32, 56 nM; in that of B33, 13 nM. On the same count and under the same terms, the same measure for B34: 2.1 nM. B35 returned a Kd of 1.6 nM. Same read-out and setting: in the case of B36 it was 3.2 nM; in that of B37, 0.69 nM; in that of B38, 3.8 nM. On the same count and under the same terms, in the case of B39 it was 95 nM; in that of B40, 0.076 nM; in that of B41, 0.019 nM. Still for that read-out and setting: in the case of B42 it was 57 nM. B43 had a Kd of 46 nM.

As to B44, binding was put at a Kd of 30 nM. Compared with the last molecule, the Kd is about 1.5-fold lower. The molecule B45 yielded a dissociation constant Kd of 0.062 nM. The same measure, in the same setting: the same measure for B46: 99 nM; for B47: 2.4 nM.

One may read the Kd as the constant that tells how readily two partners part at equilibrium. Low readings indicate a tighter complex, high ones a looser complex.

(Values after US20030236190A1 (published 2003).)
